From PMC10585736, “Analyses of POL30 (PCNA) reveal positional effects in transient repression or bi-modal active/silent state at the sub-telomeres of S. cerevisiae” (Epigenetics & Chromatin, 2023)

T1: Rrm3p-Myc (S. cerevisiae, UniProt P38766 1-723)
T1 construct: Rrm3p DNA helicase, S. cerevisiae; source: expressed from a low copy plasmid in the POL30-0 and mutant pol30 yeast strains, in lysate
T1 sequence (looked up): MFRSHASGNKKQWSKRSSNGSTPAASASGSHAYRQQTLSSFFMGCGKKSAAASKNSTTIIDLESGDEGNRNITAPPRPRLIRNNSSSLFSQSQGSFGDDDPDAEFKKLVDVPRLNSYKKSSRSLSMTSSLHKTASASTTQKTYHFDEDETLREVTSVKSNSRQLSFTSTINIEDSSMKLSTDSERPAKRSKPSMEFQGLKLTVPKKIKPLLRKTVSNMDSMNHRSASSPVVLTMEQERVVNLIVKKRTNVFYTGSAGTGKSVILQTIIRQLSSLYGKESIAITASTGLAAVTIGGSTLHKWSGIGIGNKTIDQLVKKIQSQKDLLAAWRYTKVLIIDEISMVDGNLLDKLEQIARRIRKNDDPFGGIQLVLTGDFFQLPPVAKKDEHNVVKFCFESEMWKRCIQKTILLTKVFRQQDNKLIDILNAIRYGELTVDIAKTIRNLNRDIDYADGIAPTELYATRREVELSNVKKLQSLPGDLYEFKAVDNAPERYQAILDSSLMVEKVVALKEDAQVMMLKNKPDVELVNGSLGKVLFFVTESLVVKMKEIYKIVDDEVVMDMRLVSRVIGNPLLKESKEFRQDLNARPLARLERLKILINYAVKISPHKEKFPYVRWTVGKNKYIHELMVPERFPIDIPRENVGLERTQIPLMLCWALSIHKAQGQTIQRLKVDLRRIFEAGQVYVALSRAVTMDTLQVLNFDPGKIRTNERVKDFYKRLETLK


Molecular target: T1, Rrm3p-Myc
Experiment: co-IP; Cac1p-FLAG and Rrm3p-Myc from low copy plasmids in the POL30-0 and mutant pol30 strains; α-FLAG or α-Myc precipitation from lysate in IP buffer (150 mM NaCl, 50 mM Tris pH 7.5, 2 mM EDTA), washes with 0.2% Triton X100 + 0.01% SDS, elution with FLAG or Myc peptide, blot with α-PCNA
Details: partners not purified

| fold reduction of co-precipitated Pol30p against wild-type Pol30p [fold] | Binder |
| --- | --- |
| 5 | pol30-6 mutant Pol30p of the pol30-6 strain (natural protein, S. cerevisiae, UniProt P15873 1-258, looked up, Pol30p (PCNA), S. cerevisiae, double alanine substitutions at Asp 41 and Asp 42; detected with α-PCNA; also called Pol30-6p; source: expressed in the pol30-6 mutant yeast strain, in lysate) MLEAKFEEASLFKRIIDGFKDCVQLVNFQCKEDGIIAQAVAASRVLLVSLEIGVEAFQEYRCDHPVTLGMDLTSLSKILRCGNNTDTLTLIADNTPDSIILLFEDTKKDRIAEYSLKLMDIDADFLKIEELQYDSTLSLPSSEFSKIVRDLSQLSDSINIMITKETIKFVADGDIGSGSVIIKPFVDMEHPETSIKLEMDQPVDLTFGAKYLLDIIKGSSLSDRVGIRLSSEAPALFQFDLKSGFLQFFLAPKFNDEE |
| < 2 | pol30-8 mutant Pol30p of the pol30-8 strain (natural protein, S. cerevisiae, UniProt P15873 1-258, looked up, Pol30p (PCNA), S. cerevisiae, double alanine substitutions at Arg 61 and Asp 63; detected with α-PCNA; also called Pol30-8p; source: expressed in the pol30-8 mutant yeast strain, in lysate) MLEAKFEEASLFKRIIDGFKDCVQLVNFQCKEDGIIAQAVDDSRVLLVSLEIGVEAFQEYACAHPVTLGMDLTSLSKILRCGNNTDTLTLIADNTPDSIILLFEDTKKDRIAEYSLKLMDIDADFLKIEELQYDSTLSLPSSEFSKIVRDLSQLSDSINIMITKETIKFVADGDIGSGSVIIKPFVDMEHPETSIKLEMDQPVDLTFGAKYLLDIIKGSSLSDRVGIRLSSEAPALFQFDLKSGFLQFFLAPKFNDEE |
